Experimental data published in a protein production outcome set (Wang et al. 2014).

Assay: label from the status in PepcDB records

Sequence	protein production
MLKKVIGILVIIAIISVGFFQKEAWLDAIKAGGMFSVLFSMLLIAADVFFPIVPFALIAALNGAVFGTANGIWITLTGSMLGTILLFFLARYSFRDWARKKVQAYPAIQSYEASFNKNAFTAVLLGRLIPVIPSLVMNVICGLSQVRWHVFFFASLIGKIPNIVVVTIAGANFTSNKLLSISIYGTYILIIMLVIYKKFPHLLKVPKK	failed
KVKIPYQKYKLDNGLTVILAPEGSDPLVHVDVTYHVGSAREEIGKSGFAHFFEHMMFQGSENVGDQEHFKIITEAGGTLNGTTNRDRTNYFETVPANQLEKMLWLESDRMGFLLDAVSQRKFEIQRSTVKNERAQRYDNRPYGLIWERMSEALYPEGHPYSWQTIGYVEDLERVDVNDLKAFFLRWYGPNNATITIGGDLDVEQTLAWVNKYFGSIPRGP	failed
MGRCSHGLREGRRGEPVRDPTPLDRAGCSVLPGGAKLYYSMAFKMHVPPRGSGHIEEPRRLDKALKALKKSRLLDMLEKVDPGFQSLRVFETVHDPLYIKGILAELEAALDSYFIDSDTYISPGTQAALEALAASVEQASEHVAEGGKALVLGRPPGHHAGVAGPGLGAPSLGACLVNAAASLAYRLAGRGLKVLILDFDANHGNGTQEILQALPMGDRLFHLDMHQDWRKSFPWTGEPGVTGDGTALNIVLPEGSGDDIVLALIEGLEPLVNESEPDAVVVSMGFDGYSGDSPLTLTKLTSHTFHALGRLASRYPVAAVLETGFGRGLELGLPAFIAGLLGLGNPVQEEAIKSDEEVWREFLETNKEVVEHG	failed
MRSNYAKKLVAGTLVASMTITASMPLFADELATEIPSAGAAVIVEDYINNSGKETDIEKLLPTEATDSTATANETTKTENQTEKTQTSNTATSSEDKLFANIAITKVSGGAEDYVNVRKKPTTESKVVGKIYNNSGAKILEKTNNGWYKIVSGNCTGYIKSDFFVTGSSAKSRALDNGYVQAEAKDAIHVRAEASTNSKVVTNVYKNETYTIKKFDKTGEWIKVKIKAGVSGWISAQYANVNINMETAITRKIEKAKIKKEREAAKAAAKAAAEEEARKQAEQQEQQASNDNSQSSSDGTYSNSSNSSSRSNYSNSSSSSSSSSSSSSSSSSKKSHSSSSSSSSGSGTGAAIVAYAKQFLGNPYVYGGASLTNGTDCSGFTMSVYAHFGYGLSRSSYTQVNNGRAVSMSSLQPGDLLFYKYGGSTISHVAIYIGGGQIIHASTEETGIIISGMGSPCAARRIIG	failed
MMITLVLSSFLSRDNIMRGMIYLIIATILAAIGWGASKMVVMTIPGDIFIGTRFLLASFVLAPFCFKQFRTLTGKQILALSGVGLVLSFALQVWVYAVSITTSLAEGAFIMSLAMIIAPIISWILFRNKPNKAFWIALPISILGMILLTLGNGWKLEASQLGFMLSALLLSMHFVLNKRIIGAITPLLSICVQLFVVGLSGCLYASLNSHPSFEITQHAVFWFLISTIVATAIRYLAQTLGQFSVNIETASLIMILEPVWTLVLSISVLHEVVAPQKLIGGAVIFLSLFVYIKLSRRLK	failed
MAESVRLPTPYNRKTEIRPMFTEIILFLLDTVFTLFGMALLLRLWMQLSRLPSRNPVSQGVFQVTDWIVRPLRRIIPGLGGIDWATVFAAYLTAVAFLLCRALVLGADPLGFLPVILALGVLSMLKWGISMVMWVTLLMAVLSWVNPNSPLAAPIWHLTAPLLRPIQRVVPRLGGFDISPLILFVIAQILLMVIANVSRGVA	failed
MSQAVLATETNRRQLQQIISGLSDGVILIETDKARTLLWANEAALAMHGVSTVEQLGGNLREYARRYALRYRNNHPLGLDSYPINRVAAGETFSDVVVEVQAEIDGEPRHWVHRVRSMILEDRNGAPESLVLILSDATDWASAEQRFEKTFNANPAPAVICRLGDLRYIKVNQGFLEMTGYARDQVIGRSVYELDVLEDAEHKELAVERLGQGATIPQMQAELRLPEGGSKLVIVAGQPLDINDEDCMLFSFMDLEPRRKAEIALRQSEERFAKSFRLTPVPTLVCSAEQQIVDVNEAFLDTCGYSSEELLGKTVQDIGFIAEPQAAEQLFGRLEKSGNVMGLDLKVRKKGAEQVDCVAYADTVLIQDSPCYLLVLMDISERKRSELELVGAIEEVMRDASWFSQTLIEKLANVRNTRSAQAPAVTSAELTTREREVLGLIYQGLADKEIAAQLQLAPNTVRNHVATLYSKLDVHSRGEAIVWARERGLFAGSAG	failed
GPGSMSLKVNILGHEFSNPFMNAAGVLCTTEEDLRRMTESESGSLIGKSCTLAPRTGNPEPRYFGLPLGSINSMGLPNLGVDFYLSYAAQTHDYSRKPLFLSMSGLSVEESVEMVKKLAPITKEKGTILELNLSCPNVPGKPQVGYDFDTTRTYLQKVSEAYGLPFGVKMPPYFDIAHFDMAAAVLNDFPLVKFITCVNSIGNGLVIDPANETVVIKPKQGFGGLGGKYVLPTALANVNAFFRRCPDKLVFGCGGVYSGEEAFLHILAGASMVQVGTALHDEGPIIFARLNKELQEIMTNKGYKTLDEFRGRVKTMD	not failed
MRFSFLPIVILMMPILEIAGFIIVGKAIGLWLTLALILFTSFLGLLILRLGGVGMVRNLQAAGRTGAQPADELVNGAMRVVAGILLIIPGFITDILGLLLLSPAIRRFFWKAFGPRVVVSGSFRQSGPQQGDYSGFRNGPGPAGNSKVVDLDEEEFHREGSKDSPWSNRPDDRDLPKP	failed
MSQKGEAEGIARIRSAALFYIVAILITLVAVFAVFIPLIVSISSISSNLSNPNASSASAAAGGILSAVIGVIVVAVIVSIVILVFIILSFLRFRDGFSILQAIGRDVGIGKTGTTLILVGAILLIIPFLDIIGIILIFVGQILLGIGIYRIGEIYNNSLTKIGGILVAIPLIDITAFIGMIMTYVGVGQIQREFGMRPPLPPSSQIPSQQTGSGVLRGNGTADLNIYLQTQEQVVSAQILGTNYLTGLIVPNMLQPGFNNLTVNFNVPLNLMPNSIYVIRLNLASGRTLDVNVTFQP	failed
MEVSHVTLEPNKDSRPAVLTIGKFDGVHLGHQTILNTALSIKKENEILTAISFSPHPLWALKQIEIYREMLTPRMEKERWLAHYGVDHLIETAFTPRYAETTPEEFVTDHLSNLQLSHIIVGSEFNFGKGRDSDVDLLRDLCKPYGIGVTSVPVIETNQTKISSTNIRAFIRRGHFLEAEQLLGHP	failed
MLTRPMGEGYIQYLRLSKETTQPADSKIPGLWSSSVRPEFCCIYRVPDRLRKVNPEAYTPQMLLIGPLHHSKKAEALKRYKTDLRYLNYLNMELHKKKCLDSIADIYGDQPVKEFRRIIEINEKFIRDSYAESTIWINTKDFVEMILHDSVFILLFFIQTGSTLNFNKKEDILFNQSRLINATAILEDLILLENQLPYALLEKLFEPFSSNVNTKETFRDITLRAFRFEGKIKEEVRFQHFTDLFRCVRVSTLSLTEEQINIAKNEPPKSRKIMYNADKLDSAGVNFVNVDEENDLSLVITFKDGILKMPCFTVEDNTERVVRNLMALEQCHYPRTTFVCDYISFLDFLINTDQDVDLLAKKGIVKNWLGHQGSVTEMVNKLCLGLVDFGSHYSDIVENLNKHYDNRLNRSVGTLRRVYFKDLWTGTATIAAVVLLVLTLIQTVASILQVMMQNDNKSPPPPAPSRGL	failed
MLSHHPSLHFLSKLSTLSLQRNQEKQALVEELEERIELLNRLETTLSKTLNCFPEELVTFLKNNDSVTSLAEFAAECNVDPLRDTQTELLIAASQKLERWWQVEKLVEEEKKRNYEAEKLLKDFEAFKKDLETVITGFKAEQSSATQASVDQEKKALEKLKKAFESYEANSSCQPVDVTHEEVVELGKKVTLLEAQVIEEQLQLDTYQMLPQDPVLARIVLDEAKEKLKEFSAERDSILRNMKFV	failed
MKESRNTLNSSELNTTTSWSKHDTHWVLSLFGTAVGAGILFLPINLGIGGFWPLVAMAFLAFPMTYLAHRGLARFVLSSKIKNADFTDVVEEHFGAKAGRSISLLYFLSIFPILLIYGVGITNTVDSFMVNQAGMEALPRELLSGVLVFALIAIMMAGEKVMLRAFAVMVYPLVAILAFLSFYLMPNWTMPVLDTPDMGAFASTMWLAVPVVIFSFSHAAAISSFANVQRRHYGDDADAKAELILRCTSIMLIAFVLLFVFSCVLALSPEQLAQAKAQNVSVLSYLANATDNPFIATLGPLVAFVAITSSFLGHFLGARESLNGLITKHSNLSETRVDRISVVVLFLSIWAAAIMNPSILGMMEALSGPVIAMILFIMPMLAVHKIESMKQYRGKLSTYFVLITGIVAVSALVFSLLS	not failed
